What was measured:
Assay in all cases: EMSA
[1] = system: EutV ANTAR (Enterococcus faecalis (V583?)); details: 10 mM Mg2+; 50 mM Hepes pH 7.5, 150 mM NaCl, 10 mM MgCl2, 2.5 ng/ul yeast tRNA, ~2 fmol RNA in 10 ul, 30 min at 25 C; EMSA on 5% native TBE gel, or DRaCALA on …
[2] = system: EutV ANTARcc (Enterococcus faecalis (V583?)); details: 10 mM Mg2+; 50 mM Hepes pH 7.5, 150 mM NaCl, 10 mM MgCl2, 2.5 ng/ul yeast tRNA, ~2 fmol RNA in 10 ul, 30 min at 25 C; EMSA on 5% native TBE gel, or DRaCALA on …
[3] = system: EutV full length (Enterococcus faecalis (V583?)); details: unphosphorylated; 10 mM Mg2+; 50 mM Hepes pH 7.5, 150 mM NaCl, 10 mM MgCl2, 2.5 ng/ul yeast tRNA, ~2 fmol RNA in 10 ul, 30 min at 25 C; EMSA on 5% native TBE gel, or DRaCALA on …

Sequence “GGGCAAAGAAUCAGAAACACAAUGGCGUGUUUUAACAAUCGGCAAAGGAGCCCAAGACUAAGUACGUG [eutP 5' leader dual hairpin RNA, wild type]” has a binding signal (fold weaker than ANTARcc) [1] of 100, a Kd [2] of 0.7 µM and a Kd [3] of 10 µM.
